Source: paper PMC5680108 (Cellular microbiology, 2017)
Like-named read-outs stand apart in the source and are kept apart here.

Key:
Experiment in all cases: ELISA
[1] = molecular target: complement component C4b, human (human) (UniProt P0C0L4)
[2] = molecular target: T1, complement component C4b, human (human, UniProt P0C0L4 20-675; P0C0L4 757-1446; P0C0L4 1454-1744)
[3] = molecular target: T1, complement component C4b, human; remark: listed apart in the source

T1 sequence (P0C0L4 20-675, chain 1 of 3): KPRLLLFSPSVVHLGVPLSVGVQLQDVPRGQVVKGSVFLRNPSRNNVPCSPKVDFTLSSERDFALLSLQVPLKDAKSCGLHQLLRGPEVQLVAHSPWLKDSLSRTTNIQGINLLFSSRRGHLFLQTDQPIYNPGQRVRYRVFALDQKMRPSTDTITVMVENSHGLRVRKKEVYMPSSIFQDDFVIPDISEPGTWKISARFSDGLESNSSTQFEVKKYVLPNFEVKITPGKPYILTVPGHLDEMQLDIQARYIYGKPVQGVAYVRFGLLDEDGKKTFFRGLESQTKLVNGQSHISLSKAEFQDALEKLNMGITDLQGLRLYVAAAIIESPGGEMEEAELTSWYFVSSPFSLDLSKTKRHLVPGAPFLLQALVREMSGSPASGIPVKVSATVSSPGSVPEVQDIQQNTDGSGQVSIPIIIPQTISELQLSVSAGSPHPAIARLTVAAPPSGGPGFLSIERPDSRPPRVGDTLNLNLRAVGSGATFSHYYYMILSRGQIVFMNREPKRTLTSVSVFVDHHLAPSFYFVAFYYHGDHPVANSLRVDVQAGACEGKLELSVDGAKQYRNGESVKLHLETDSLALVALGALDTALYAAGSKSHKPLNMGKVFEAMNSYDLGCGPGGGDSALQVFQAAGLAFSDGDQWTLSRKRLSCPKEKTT
T1 sequence (P0C0L4 757-1446, chain 2 of 3): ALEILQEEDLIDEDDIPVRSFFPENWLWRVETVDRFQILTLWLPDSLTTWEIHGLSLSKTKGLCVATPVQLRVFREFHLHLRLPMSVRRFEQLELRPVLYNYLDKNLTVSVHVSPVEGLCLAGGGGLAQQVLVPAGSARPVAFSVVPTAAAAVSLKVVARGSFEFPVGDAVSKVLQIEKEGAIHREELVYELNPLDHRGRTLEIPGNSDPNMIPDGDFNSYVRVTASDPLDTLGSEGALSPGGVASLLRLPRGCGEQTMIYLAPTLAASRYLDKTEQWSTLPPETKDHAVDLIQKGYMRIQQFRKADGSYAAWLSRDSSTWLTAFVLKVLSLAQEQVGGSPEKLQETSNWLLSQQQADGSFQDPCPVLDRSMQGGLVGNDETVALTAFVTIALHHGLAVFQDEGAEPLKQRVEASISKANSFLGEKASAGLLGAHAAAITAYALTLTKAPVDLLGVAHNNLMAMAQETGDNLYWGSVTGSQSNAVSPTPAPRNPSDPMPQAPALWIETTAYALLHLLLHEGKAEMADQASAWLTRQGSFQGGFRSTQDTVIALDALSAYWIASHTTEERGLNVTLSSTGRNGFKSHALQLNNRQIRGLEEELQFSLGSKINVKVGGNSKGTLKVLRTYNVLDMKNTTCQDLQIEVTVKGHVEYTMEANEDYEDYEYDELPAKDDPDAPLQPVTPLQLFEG
T1 sequence (P0C0L4 1454-1744, chain 3 of 3): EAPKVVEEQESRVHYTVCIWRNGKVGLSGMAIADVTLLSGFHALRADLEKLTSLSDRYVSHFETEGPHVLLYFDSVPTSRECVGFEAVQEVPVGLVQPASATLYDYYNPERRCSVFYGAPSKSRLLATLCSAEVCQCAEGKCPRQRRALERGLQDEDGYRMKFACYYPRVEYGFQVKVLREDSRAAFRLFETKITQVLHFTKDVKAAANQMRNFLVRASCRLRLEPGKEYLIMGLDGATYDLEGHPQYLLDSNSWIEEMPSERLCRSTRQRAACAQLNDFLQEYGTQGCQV
Sequence of complement component C4b, human (human) (P0C0L4 20-675, chain 1 of 3): as the sequence (P0C0L4 20-675, chain 1 of 3) above
Sequence of complement component C4b, human (human) (P0C0L4 757-1446, chain 2 of 3): as the sequence (P0C0L4 757-1446, chain 2 of 3) above
Sequence of complement component C4b, human (human) (P0C0L4 1454-1744, chain 3 of 3): as the sequence (P0C0L4 1454-1744, chain 3 of 3) above

Molecule “GST-tagged OspC from B. burgdorferi strain N40 clone D10/E9 (natural protein)” has a Kd [1] of 0.233 µM.

B1: GST-OspCB31, GST fused to OspC from B. burgdorferi strain B31-A3 (natural protein)
chain: CNNSGKDGNTSANSADESVKGPNLTEISKKITDSNAVLLAVKEVEALLSSIDEIAAKAIGKKIHQNNGLDTENNHNGSLLAGAYAISTLIKQKLDGLKNEGLKEKIDAAKKCSETFTNKLKEKHTDLGKEGVTDADAKEAILKTNGTKTKGAEELGKLFESVEVLSKAAKEMLANSVKELTSPVVAESPKKP
With B1 the Kd [2] was 0.476 µM and the Kd [3] was ~0.414 µM.
